Values quoted from earlier work in article PMC4497409.
pKd: −log10 of the molar value. Values joined by “and” are separate entries in the source; they are usually repeats but may differ in a detail not shown here. Equal values may be shown once.

How the values were obtained:
[1] = biological target: Frizzled4 CRD (Mus musculus) (UniProt Q61088); test: ELISA
[2] = biological target: Lrp6 P1E1P2E2 (Homo sapiens) (UniProt O75581); test: AlphaScreen
[3] = biological target: Frizzled4 CRD (Homo sapiens) (UniProt Q9ULV1); test: AlphaScreen
Frizzled4 CRD (Homo sapiens), sequence (Q9ULV1 40-161): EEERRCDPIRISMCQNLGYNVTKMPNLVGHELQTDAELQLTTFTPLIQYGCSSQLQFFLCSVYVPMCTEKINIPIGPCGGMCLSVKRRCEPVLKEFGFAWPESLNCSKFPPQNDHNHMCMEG

Lrp6 P1E1P2E2 (Homo sapiens), sequence (O75581 20-630): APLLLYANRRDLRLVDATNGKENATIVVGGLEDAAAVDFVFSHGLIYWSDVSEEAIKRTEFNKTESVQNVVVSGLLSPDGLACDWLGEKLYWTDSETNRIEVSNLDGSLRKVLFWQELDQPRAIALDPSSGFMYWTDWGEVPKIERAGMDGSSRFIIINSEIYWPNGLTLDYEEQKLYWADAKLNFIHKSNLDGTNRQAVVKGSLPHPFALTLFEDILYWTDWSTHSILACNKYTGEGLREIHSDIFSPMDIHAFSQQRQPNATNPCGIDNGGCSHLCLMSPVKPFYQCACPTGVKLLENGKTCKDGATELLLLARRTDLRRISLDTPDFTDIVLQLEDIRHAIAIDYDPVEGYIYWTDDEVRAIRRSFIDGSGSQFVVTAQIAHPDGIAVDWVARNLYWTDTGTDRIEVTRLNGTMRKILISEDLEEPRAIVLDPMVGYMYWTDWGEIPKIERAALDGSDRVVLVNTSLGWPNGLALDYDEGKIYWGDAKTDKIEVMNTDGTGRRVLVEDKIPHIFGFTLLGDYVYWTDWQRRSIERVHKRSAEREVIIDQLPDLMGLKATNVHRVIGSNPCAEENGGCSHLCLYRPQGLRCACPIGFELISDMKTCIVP
Norrin, sequence (P48744 25-131): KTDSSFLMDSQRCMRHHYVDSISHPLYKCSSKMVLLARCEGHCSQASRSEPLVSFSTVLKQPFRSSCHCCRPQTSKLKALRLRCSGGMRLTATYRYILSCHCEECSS
Frizzled4 CRD (Mus musculus), sequence (Q61088 40-161): as the sequence (Q9ULV1 40-161) above, with S12A, K94R, E102D, S103T counted along it

| pKd [1] | pKd [2] | pKd [3] | Substance |
| --- | --- | --- | --- |
| 8.46 | – | – | Norrin (from UniProt P48744) |
| – | 6.35 | 7.96 and 8.30 | Norrin (from UniProt Q00604) |
